Laboratory results from US11130793B2, “GLP-1/GLP-2 dual agonists” (Zealand Pharma A/S, priority 2016, dated 2021).
Square brackets hold non-standard residues; d marks the D form. Aib = CC(C)(N)C(=O)O

Assays:
human GLP-1 receptor = target: T1, human GLP-1 receptor (Homo sapiens, UniProt P43220); assay: GLP-1 receptor potency assay (cAMP AlphaScreen, HEK293 cells stably expressing GLP-1R); type: cell-based; conditions: cAMP response, HEK293 cells expressing human GLP-1R; read-out: EC50 GLP-1
T1 construct: expressed in transfected cells
Source text: One useful in vitro assay for measuring GLP-1 and GLP-2 receptor activity is quantitation of cAMP, i.e. 3′-5′-cyclic adenosine monophosphate, which is a second messenger essential in many biological processes, and one of the most ubiquitous mechanisms for regulating cellular functions. […] Test compounds eliciting an increase in the intracellular level of cAMP can be tested in these assays, and the response normalized relative to a positive and negative control (vehicle) to calculate the EC50 and maximal response from the concentration response curve using the 4-parameter logistic (4PL) nonlinear model for curve fitting.
The cDNA encoding the human glucagon-like peptide 1 receptor (GLP-1R) (primary accession number P43220) was cloned from the cDNA BC112126 (MGC:138331/IMAGE:8327594). The DNA encoding the GLP-1-R was amplified by PCR using primers encoding terminal restriction sites for subcloning. The 5′-end primers additionally encoded a near Kozak consensus sequence to ensure efficient translation. […] The PCR products encoding the GLP-1-R were subcloned into a mammalian expression vector containing a neomycin (G418) resistance marker. The mammalian expression vectors encoding the GLP-1-R were transfected into HEK293 cells by a standard calcium phosphate transfection method. 48 hours post-transfection, cells were seeded for limited dilution cloning and selected with 1 mg/ml G418 in the culture medium. Following 3 weeks in G418 selection clones were picked and tested in a functional GLP-1 receptor potency assay as described below.
The cAMP AlphaScreen assay from Perkin Elmer was used to quantitate the cAMP response to activation of the GLP1 and GLP2 receptor, respectively. […] Data from test compounds eliciting an increase in the intracellular level of cAMP were normalized relative to the positive and negative control (vehicle) to calculate the EC50 and maximal response from the concentration response curve.

[1] = target: T2, human GLP-2 receptor (hGLP2-R) (human, UniProt O95838); assay: cell-based or functional assay
T2 sequence: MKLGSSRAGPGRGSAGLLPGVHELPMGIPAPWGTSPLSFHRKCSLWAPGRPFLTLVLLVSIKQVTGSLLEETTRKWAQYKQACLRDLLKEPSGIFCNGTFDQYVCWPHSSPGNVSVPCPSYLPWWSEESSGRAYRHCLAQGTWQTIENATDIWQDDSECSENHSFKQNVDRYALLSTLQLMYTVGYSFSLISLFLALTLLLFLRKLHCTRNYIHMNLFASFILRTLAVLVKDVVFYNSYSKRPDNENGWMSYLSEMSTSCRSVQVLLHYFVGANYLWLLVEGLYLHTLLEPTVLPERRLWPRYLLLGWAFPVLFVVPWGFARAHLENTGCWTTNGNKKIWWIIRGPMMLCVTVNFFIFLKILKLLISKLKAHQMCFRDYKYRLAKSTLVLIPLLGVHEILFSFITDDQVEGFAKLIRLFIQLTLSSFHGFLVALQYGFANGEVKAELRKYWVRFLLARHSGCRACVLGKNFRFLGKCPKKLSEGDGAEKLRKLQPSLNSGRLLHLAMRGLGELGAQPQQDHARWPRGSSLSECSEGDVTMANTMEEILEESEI

[2] = target: human glucagon-like peptide 1 receptor (GLP-1R) (human, UniProt P43220); assay: cell-based or functional assay

T1 sequence (P43220 24-463): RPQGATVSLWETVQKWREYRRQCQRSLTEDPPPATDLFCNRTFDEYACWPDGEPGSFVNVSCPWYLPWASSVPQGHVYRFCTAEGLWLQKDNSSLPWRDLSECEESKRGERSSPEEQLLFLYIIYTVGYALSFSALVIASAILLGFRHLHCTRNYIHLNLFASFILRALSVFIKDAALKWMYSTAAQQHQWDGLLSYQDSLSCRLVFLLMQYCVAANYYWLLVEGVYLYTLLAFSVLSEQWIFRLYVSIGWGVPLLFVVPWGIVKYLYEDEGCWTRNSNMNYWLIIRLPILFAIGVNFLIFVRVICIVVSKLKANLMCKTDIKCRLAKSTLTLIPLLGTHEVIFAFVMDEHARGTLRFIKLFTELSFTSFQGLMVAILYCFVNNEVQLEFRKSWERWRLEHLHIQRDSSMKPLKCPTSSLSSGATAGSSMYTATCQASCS

Molecule: CC[C@H](C)[C@H](NC(=O)[C@H](Cc1ccccc1)NC(=O)[C@H](CC(=O)O)NC(=O)[C@H](CCCNC(=N)N)NC(=O)[C@H](C)NC(=O)[C@H](C)NC(=O)[C@H](CC(C)C)NC(=O)[C@H](CC(N)=O)NC(=O)[C@H](CC(=O)O)NC(=O)[C@H](CC(C)C)NC(=O)[C@@H](NC(=O)[C@@H](NC(=O)[C@H](CC(N)=O)NC(=O)[C@H](CCSC)NC(=O)[C@H](CCC(=O)O)NC(=O)[C@H](CC(=O)O)NC(=O)[C@H](CO)NC(=O)[C@H](Cc1ccccc1)NC(=O)[C@H](CO)NC(=O)CNC(=O)[C@H](CC(=O)O)NC(=O)CNC(=O)[C@@H](N)Cc1c[nH]cn1)[C@@H](C)O)[C@@H](C)CC)C(=O)N[C@@H](CC(N)=O)C(=O)N[C@@H](Cc1c[nH]c2ccccc12)C(=O)N[C@@H](CC(C)C)C(=O)N[C@H](C(=O)N[C@@H](CCC(N)=O)C(=O)N[C@H](C(=O)N[C@@H](CCCCN)C(=O)N[C@H](C(=O)N[C@H](C(=O)N[C@@H](CC(=O)O)C(=O)O)[C@@H](C)O)[C@@H](C)CC)[C@@H](C)O)[C@@H](C)CC [Teduglutide, [Gly2]-hGLP-2 (1-33), reference compound]
- EC50 (human GLP-1 receptor): 39000 pM

B1: Compound 41 (peptide)
peptide: H-H[Aib]EGSFSSELATILDEQAARDFIAWLIQHKITD-OH
SMILES: CC[C@H](C)[C@H](NC(=O)[C@H](Cc1ccccc1)NC(=O)[C@H](CC(=O)O)NC(=O)[C@H](CCCNC(=N)N)NC(=O)[C@H](C)NC(=O)[C@H](C)NC(=O)[C@H](CCC(N)=O)NC(=O)[C@H](CCC(=O)O)NC(=O)[C@H](CC(=O)O)NC(=O)[C@H](CC(C)C)NC(=O)[C@@H](NC(=O)[C@@H](NC(=O)[C@H](C)NC(=O)[C@H](CC(C)C)NC(=O)[C@H](CCC(=O)O)NC(=O)[C@H](CO)NC(=O)[C@H](CO)NC(=O)[C@H](Cc1ccccc1)NC(=O)[C@H](CO)NC(=O)CNC(=O)[C@H](CCC(=O)O)NC(=O)C(C)(C)NC(=O)[C@@H](N)Cc1c[nH]cn1)[C@@H](C)O)[C@@H](C)CC)C(=O)N[C@@H](C)C(=O)N[C@@H](Cc1c[nH]c2ccccc12)C(=O)N[C@@H](CC(C)C)C(=O)N[C@H](C(=O)N[C@@H](CCC(N)=O)C(=O)N[C@@H](Cc1c[nH]cn1)C(=O)N[C@@H](CCCCN)C(=O)N[C@H](C(=O)N[C@H](C(=O)N[C@@H](CC(=O)O)C(=O)O)[C@@H](C)O)[C@@H](C)CC)[C@@H](C)CC
- EC50 GLP-2 (nM); cAMP AlphaScreen [1]: 0.026 nM
- EC50 GLP-1 (nM); cAMP AlphaScreen [2]: 0.078 nM

B2: Compound 36 (peptide)
peptide: H-H[Aib]EGTFTSELATILDEQAARDFINWLKSYKITD-OH
SMILES: CC[C@H](C)[C@H](NC(=O)[C@H](Cc1ccccc1)NC(=O)[C@H](CC(=O)O)NC(=O)[C@H](CCCNC(=N)N)NC(=O)[C@H](C)NC(=O)[C@H](C)NC(=O)[C@H](CCC(N)=O)NC(=O)[C@H](CCC(=O)O)NC(=O)[C@H](CC(=O)O)NC(=O)[C@H](CC(C)C)NC(=O)[C@@H](NC(=O)[C@@H](NC(=O)[C@H](C)NC(=O)[C@H](CC(C)C)NC(=O)[C@H](CCC(=O)O)NC(=O)[C@H](CO)NC(=O)[C@@H](NC(=O)[C@H](Cc1ccccc1)NC(=O)[C@@H](NC(=O)CNC(=O)[C@H](CCC(=O)O)NC(=O)C(C)(C)NC(=O)[C@@H](N)Cc1c[nH]cn1)[C@@H](C)O)[C@@H](C)O)[C@@H](C)O)[C@@H](C)CC)C(=O)N[C@@H](CC(N)=O)C(=O)N[C@@H](Cc1c[nH]c2ccccc12)C(=O)N[C@@H](CC(C)C)C(=O)N[C@@H](CCCCN)C(=O)N[C@@H](CO)C(=O)N[C@@H](Cc1ccc(O)cc1)C(=O)N[C@@H](CCCCN)C(=O)N[C@H](C(=O)N[C@H](C(=O)N[C@@H](CC(=O)O)C(=O)O)[C@@H](C)O)[C@@H](C)CC
- EC50 GLP-2 (nM); cAMP AlphaScreen [1]: 0.11 nM
- EC50 GLP-1 (nM); cAMP AlphaScreen [2]: 0.007 nM

B3: Compound 39 (peptide)
peptide: H-H[Aib]EGTFSSELSTILEEQASREFIAWLIAHKITE-OH
SMILES: CC[C@H](C)[C@H](NC(=O)[C@H](CC(C)C)NC(=O)[C@H](Cc1c[nH]c2ccccc12)NC(=O)[C@H](C)NC(=O)[C@@H](NC(=O)[C@H](Cc1ccccc1)NC(=O)[C@H](CCC(=O)O)NC(=O)[C@H](CCCNC(=N)N)NC(=O)[C@H](CO)NC(=O)[C@H](C)NC(=O)[C@H](CCC(N)=O)NC(=O)[C@H](CCC(=O)O)NC(=O)[C@H](CCC(=O)O)NC(=O)[C@H](CC(C)C)NC(=O)[C@@H](NC(=O)[C@@H](NC(=O)[C@H](CO)NC(=O)[C@H](CC(C)C)NC(=O)[C@H](CCC(=O)O)NC(=O)[C@H](CO)NC(=O)[C@H](CO)NC(=O)[C@H](Cc1ccccc1)NC(=O)[C@@H](NC(=O)CNC(=O)[C@H](CCC(=O)O)NC(=O)C(C)(C)NC(=O)[C@@H](N)Cc1c[nH]cn1)[C@@H](C)O)[C@@H](C)O)[C@@H](C)CC)[C@@H](C)CC)C(=O)N[C@@H](C)C(=O)N[C@@H](Cc1c[nH]cn1)C(=O)N[C@@H](CCCCN)C(=O)N[C@H](C(=O)N[C@H](C(=O)N[C@@H](CCC(=O)O)C(=O)O)[C@@H](C)O)[C@@H](C)CC
- EC50 GLP-2 (nM); cAMP AlphaScreen [1]: 0.96 nM
- EC50 GLP-1 (nM); cAMP AlphaScreen [2]: 0.03 nM

B4: Compound 40 (peptide)
peptide: H-HGEGSFSSELATILDEQAARDFIAWLIQHKITD-NH2
- EC50 GLP-2 (nM); cAMP AlphaScreen [1]: 0.05 nM
- EC50 GLP-1 (nM); cAMP AlphaScreen [2]: 1.4 nM

B5: Compound 37 (peptide)
peptide: H-H[Aib]EGTFTSELATILDEQAARDFINWLKEQKITD-OH
SMILES: CC[C@H](C)[C@H](NC(=O)[C@H](Cc1ccccc1)NC(=O)[C@H](CC(=O)O)NC(=O)[C@H](CCCNC(=N)N)NC(=O)[C@H](C)NC(=O)[C@H](C)NC(=O)[C@H](CCC(N)=O)NC(=O)[C@H](CCC(=O)O)NC(=O)[C@H](CC(=O)O)NC(=O)[C@H](CC(C)C)NC(=O)[C@@H](NC(=O)[C@@H](NC(=O)[C@H](C)NC(=O)[C@H](CC(C)C)NC(=O)[C@H](CCC(=O)O)NC(=O)[C@H](CO)NC(=O)[C@@H](NC(=O)[C@H](Cc1ccccc1)NC(=O)[C@@H](NC(=O)CNC(=O)[C@H](CCC(=O)O)NC(=O)C(C)(C)NC(=O)[C@@H](N)Cc1c[nH]cn1)[C@@H](C)O)[C@@H](C)O)[C@@H](C)O)[C@@H](C)CC)C(=O)N[C@@H](CC(N)=O)C(=O)N[C@@H](Cc1c[nH]c2ccccc12)C(=O)N[C@@H](CC(C)C)C(=O)N[C@@H](CCCCN)C(=O)N[C@@H](CCC(=O)O)C(=O)N[C@@H](CCC(N)=O)C(=O)N[C@@H](CCCCN)C(=O)N[C@H](C(=O)N[C@H](C(=O)N[C@@H](CC(=O)O)C(=O)O)[C@@H](C)O)[C@@H](C)CC
- EC50 GLP-2 (nM); cAMP AlphaScreen [1]: 0.16 nM
- EC50 GLP-1 (nM); cAMP AlphaScreen [2]: 0.007 nM

B6: Compound 38 (peptide)
peptide: H-HGEGTFTSELATILDEQAARDFIAWLIAHKITD-OH
- EC50 GLP-2 (nM); cAMP AlphaScreen [1]: 0.043 nM
- EC50 GLP-1 (nM); cAMP AlphaScreen [2]: 0.008 nM
